Laboratory results published in paper PMC5111828.
Values belong to the substance of their own block, whether it stands above or below them.

How the values were obtained:
[1] = biological target: Bcl-2 associated athanogene 3 (Bag3) (UniProt O95817); assay: cross-linking
[2] = biological target: Bcl-2 associated athanogene 3 (Bag3) (UniProt O95817); assay: flow cytometry protein interaction assay
Bag3 (Homo sapiens) [3] = biological target: Bag3 (Homo sapiens) (UniProt O95817); assay: ITC; details: cited from earlier work
Bag3 (Homo sapiens) [4] = biological target: Bag3 (Homo sapiens) (UniProt O95817); assay: APCE; details: cited from earlier work
Hsp90 (Homo sapiens) = Hsp90 (Homo sapiens) (UniProt P07900); assay: size exclusion chromatography; details: cited from earlier work
Hsp70 Alexa Fluor 488 = Hsp70 Alexa Fluor 488 (UniProt P0DMV8); assay: cross-linking

Sequence of Hsp70 (P0DMV8 2-641): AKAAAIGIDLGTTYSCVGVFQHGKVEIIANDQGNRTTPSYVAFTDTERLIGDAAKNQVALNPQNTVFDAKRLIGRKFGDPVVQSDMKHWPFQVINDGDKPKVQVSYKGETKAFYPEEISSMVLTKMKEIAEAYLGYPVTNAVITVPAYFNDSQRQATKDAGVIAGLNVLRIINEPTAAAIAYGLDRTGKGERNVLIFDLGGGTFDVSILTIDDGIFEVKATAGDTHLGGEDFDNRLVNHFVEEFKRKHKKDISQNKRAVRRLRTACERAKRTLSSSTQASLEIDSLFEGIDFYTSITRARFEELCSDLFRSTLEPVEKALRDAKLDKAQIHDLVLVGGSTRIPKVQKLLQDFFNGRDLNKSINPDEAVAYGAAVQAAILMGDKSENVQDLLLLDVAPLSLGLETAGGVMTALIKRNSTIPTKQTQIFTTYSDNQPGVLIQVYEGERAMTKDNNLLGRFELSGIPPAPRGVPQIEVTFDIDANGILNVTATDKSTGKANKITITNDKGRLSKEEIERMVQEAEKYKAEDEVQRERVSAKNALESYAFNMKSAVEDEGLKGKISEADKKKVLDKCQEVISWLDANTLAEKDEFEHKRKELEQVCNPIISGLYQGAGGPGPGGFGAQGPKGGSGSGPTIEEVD

- Ki [1]: 160 nM
Substance: Hsp70 E,D 283, 292 A,A (from UniProt P0DMV8 1-641) (natural protein)

- Ki [2]: 15 nM
Substance: unlabeled Hsp70 (Wild-Type) (from UniProt P0DMV8 1-641) (natural protein)

Substance: Hsp70 (from UniProt P0DMV8)
- Kd (Bag3 (Homo sapiens) [3]): 15 nM
- Kd (Bag3 (Homo sapiens) [4]): 23 nM

- Ki [1]: 400 nM
Substance: Hsp70 R,R 258,262 A,A (from UniProt P0DMV8 1-641) (natural protein)

Substance: Hsp90 (from UniProt P07900)
- Kd (Hsp90 (Homo sapiens)): 60 nM

- Kd (Hsp70 Alexa Fluor 488): 25 nM
Substance: Bcl-2 associated athanogene 3 (Bag3) (from UniProt O95817 1-575) (natural protein)
